Where two headings read alike, the source gives them in different places.

In test [1] the target is T1, mouse PER1 1013-1291 R1111A (mouse, UniProt O35973 1013-1291, R1111A). The test can be described thus: ITC. (In general: In ITC the heat of successive injections is recorded.)
For test [2], the target named is T1, mouse PER1 1013-1291 R1111A. In words: ITC. This is another data set of the same source.

B1: mouse CRY1 1-496 (PHR) (domain or fragment)
chain: MGVNAVHWFRKGLRLHDNPALKECIQGADTIRCVYILDPWFAGSSNVGINRWRFLLQCLEDLDANLRKLNSRLFVIRGQPADVFPRLFKEWNITKLSIEYDSEPFGKERDAAIKKLATEAGVEVIVRISHTLYDLDKIIELNGGQPPLTYKRFQTLVSKMEPLEMPADTITSDVIGKCMTPLSDDHDEKYGVPSLEELGFDTDGLSSAVWPGGETEALTRLERHLERKAWVANFERPRMNANSLLASPTGLSPYLRFGCLSCRLFYFKLTDLYKKVKKNSSPPLSLYGQLLWREFFYTAATNNPRFDKMEGNPICVQIPWDKNPEALAKWAEGRTGFPWIDAIMTQLRQEGWIHHLARHAVACFLTRGDLWISWEEGMKVFEELLLDADWSINAGSWMWLSCSSFFQQFFHCYCPVGFGRRTDPNGDYIRRYLPVLRGFPAKYIYDPWNAPEGIQKVAKCLIGVNYPKPMVNHAEASRLNIERMKQIYQQLSRYRG
By Kd is commonly meant a measure of binding affinity in units of concentration. A higher Kd goes with weaker binding. Regarding B1, the Kd in test [1] was 9.8 nM; in test [2], 10 nM.
